T1: peptide on HLA-A*02:01 (human)
T1 peptide: SLLMWITQC

T2: PRAME peptide on HLA-A*02:01 (human)
T2 peptide: SLLQHLIGL


Tests used:
[1] = molecular target: T1, peptide on HLA-A*02:01; test: activation reporter or marker
[2] = molecular target: T3, soluble HLA:A2:PRAME (425-433) tetramer (human); test: flow cytometry, soluble pMHC tetramer on CHO cells expressing the TCR;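 note: CHO cells transfected with vectors encoding full-length paired TCR alpha and beta chains, stained with PRAME/HLA tetramer and read by flow cytometry, each value reflects one listed TCR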
T3 construct: Commercial tetramer (MBL International); construct limits, biotin tag and streptavidin/fluorophore not described; also called PRAME/HLA tetramer reagent; PRAME (425-433)/HLA-A2

[3] = molecular target: T2, PRAME peptide on HLA-A*02:01; test: multimer staining

binding result [1]	Cell Frequency ≥1000 MFI, ≥1% (% tetramer positive cells in the Ag+ gate) [2]	binding result [3]	Binder
	77.5%	recognises	PN42378 (TCR, V domains shown, stained with anti-mouse TCR constant region antibody H57-597) and full-length chains were expressed on CHO cells) V domain 1: DAKTTQPNSMESNEEEPVHLPCNHSTISGTDYIHWYRQLPSQGPEYVIHGLTSNVNNRMASLAIAEDRKSSTLILHRSTLRDAAVYYCILRPDSWGKFQFGAGTQVVVTP V domain 2: DAGVTQSPTHLIKTRGQQVTLRCSPKSGHDTVSWYQQALGQGPQFIFQYYEEEERQRGNFPDRFSGHQFPNYSSELNVNALLLGDSALYLCASSLQDYGYTFGSGTRLTVV
no recognition	20.1%		PN42654 (TCR, V domains shown) V domain 1: DAKTTQPNSMESNEEEPVHLPCNHSTISGTDYIHWYRQLPSQGPEYVIHGLTSNVNNRMASLAIAEDRKSSTLILHRATLRDAAVYYCILRDGIGNQFYFGTGTSLTVIP V domain 2: EAQVTQNPRYLITVTGKKLTVTCSQNMNHEYMSWYRQDPGLGLRQIYYSMNVEVTDKGDVPEGYKVSRKEKRNFPLILESPSPNQTSLYFCASSLWTGGGYTFGSGTRLTVV
no recognition	6.08%		PN42610 (TCR, V domains shown) V domain 1: QKEVEQNSGPLSVPEGAIASLNCTYSDRGSQSFFWYRQYSGKSPELIMSIYSNGDKEDGRFTAQLNKASQYVSLLIRDSQPSDSATYLCAGNYGQNFVFGPGTRLSVLP V domain 2: AAGVIQSPRHLIKEKRETATLKCYPIPRHDTVYWYQQGPGQDPQFLISFYEKMQSDKGSIPDRFSAQQFSDYHSELNMSSLELGDSALYFCASSIGLNQPQHFGDGTRLSIL
no recognition	86.4%		PN42483 (TCR, V domains shown) V domain 1: TQLLEQSPQFLSIQEGENLTVYCNSSSVFSSLQWYRQEPGEGPVLLVTVVTGGEVKKLKRLTFQFGDARKDSSLHITAAQPGDTGLYLCAGDGGSQGNLIFGKGTKLSVKP V domain 2: EAQVTQSPRYLITVTGKKLTVTCSQNMNHEYMSWYRQDPGLGLRQIYYSMNVEVTDKGDVPEGYKVSRKEKRNFPLILESPSPNQTSLYFCASSLGGADEKLFFGSGTQLSVL

Further lines, the binder ahead of its results:

Binder	binding result [1]	Cell Frequency ≥1000 MFI, ≥1% (% tetramer positive cells in the Ag+ gate) [2]	binding result [3]
PN42879 (TCR, V domains shown) V domain 1: TQLLEQSPQFLSIQEGENLTVYCNSSSVFSSLQWYRQEPGEGPVLLVTVVTGGEVKKLKRLTFQFGDARKDSSLHITAAQPGDTGLYLCAGEDFGNEKLTFGTGTRLTIIP V domain 2: DAGVTQSPTHLIKTRGQQVTLRCSPKSGHDTVSWYQQALGQGPQFIFQYYEEEERQRGNFPDRFSGHQFPNYSSELNVNALLLGDSALYLCASSWADYGYTFGSGTRLTVV	no recognition	93.1%	
PN42683 (TCR, V domains shown) V domain 1: DAKTTQPNSMESNEEEPVHLPCNHSTISGTDYIHWYRQLPSQGPEYVIHGLTSNVNNRMASLAIAEDRKSSTLILHRATLRDAAVYYCILRDREYGNKLVFGAGTILRVKS V domain 2: EAQVTQNPRYLITVTGKKLTVTCSQNMNHEYMSWYRQDPGLGLRQIYYSMNVEVTDKGDVPEGYKVSRKEKRNFPLILESPSPNQTSLYFCASSLWTGGGYTFGSGTRLTVV	no recognition	11.1%	
PN42677 (TCR, V domains shown) V domain 1: DAKTTQPNSMESNEEEPVHLPCNHSTISGTDYIHWYRQLPSQGPEYVIHGLTSNVNNRMASLAIAEDRKSSTLILHRATLRDAAVYYCILRDGTGNQFYFGTGTSLTVIP V domain 2: EAQVTQNPRYLITVTGKKLTVTCSQNMNHEYMSWYRQDPGLGLRQIYYSMNVEVTDKGDVPEGYKVSRKEKRNFPLILESPSPNQTSLYFCASSSTGYYGYTFGSGTRLTVV	no recognition	25.3%	
